Where “and” joins values, the source holds several entries; their conditions need not be identical. Equal entries are not always repeated. Where no end group is shown, it is not given here.

This data set is described as follows: Liver serum markers after PFC injection. It counts as in vivo, mouse. Details: serum level of ALP (alkaline phosphatase) / serum level of ALT (alanine aminotransferase) / serum level of GLDH (glutamate dehydrogenase) / serum level of AST (aspartate aminotransferase): unit not given here. The settings on record: 1 mM per kg BW i.v. over 3 consecutive days, blood 24 h after last injection; individual mice. As to the method:
^ConPFCs, ^mNPPFCs (each at 1 mM per kg BW) or saline were injected i.v. over 3 consecutive days. Twenty-four hours after the last injection, mice were killed, and blood samples were withdrawn to determine GLDH, AST, ALP, ALT and bilirubin levels by standard clinical procedures. Furthermore, the liver and spleen were dissected, fixed in formalin and snap frozen. Subsequently, 4-µm cryosections were cut and stained with hematoxylin and eosin as described previously.
Extended Data Fig. 3 Assessment of ^mNPPFC/^ConPFC biodistribution, liver serum markers and histology of liver and spleen. a, Biodistribution of intravenously injected ^mNPPFCs was determined via ^19F MRI measurements at distinct time points after injection (1, 3, 6 and 24 h after injection). Shown are quantification of fluorine signal intensities in the blood, liver and spleen indicating a fast wash-out from the blood accompanied by a strong influx into the liver while signal intensities in the spleen were constant over the entire observation period; a.u. = arbitrary units. b, Serum levels of GLDH (glutamate dehydrogenase), AST (aspartate aminotransferase), ALP (alkaline phosphatase), ALT (alanine aminotransferase) and bilirubin after intravenous application of NaCl as control, ^ConPFCs or ^mNPPFCs. c + d, 4 µm sections of liver (C) and spleen (D) stained with hematoxylin and eosin. Organs were excised and processed for histology 24 h post injection of NaCl (upper row), ^ConPFCs (middle), ^mNPPFCs (lower). Representative liver/spleen images of organs from three different animals are shown. Scale bars indicate 100 µm. Data are mean values ± SD of n = 6 (a), n = 4-6 (b) and n = 6 (c + d) independent experiments. Source data

On to “SLAMFLTHSPEP-GGG-C [Con, reference compound]”, for which the “serum level of ALP (alkaline phosphatase)” value was 5.7 and 16.2 and 33.5 and 13.2 and 6.6 and 3.4; the “serum level of ALT (alanine aminotransferase)” value was 1.6 and 0.9 and 0.6 and 0.8 and 1.3; the “serum level of AST (aspartate aminotransferase)” value is 0.4 and 2 and 3.4 and 0.6 and 3.1 and 2.6; the “serum level of GLDH (glutamate dehydrogenase)” value was 1.19 and 1.21 and 2.18 and 0.14.
Regarding DFYKPMPNLRITGGGC [mNP], the “serum level of ALP (alkaline phosphatase)” value was 4.3 and 4.6 and 15.5 and 19.1 and 10.5 and 11.8; the “serum level of ALT (alanine aminotransferase)” value is 0.1 and 1 and 0.8; the “serum level of AST (aspartate aminotransferase)” value is 1.5 and 6.8 and 1.6 and 1.4 and 2.5 and 2.3; the “serum level of GLDH (glutamate dehydrogenase)” value is 0.89 and 1.11 and 3.48 and 0.9 and 0.22 and 0.33.

These data come from PMC11357992, “Non-invasive mapping of systemic neutrophil dynamics upon cardiovascular injury” (Nature Cardiovascular Research, 2023).
